The source of these data is patent publication US20140134169A1, “Methods of Treating Ovarian Cancer with Dll4 Antagonists” (Regeneron Pharmaceuticals, Inc., priority 2012, published 2014).

The target in assay [1] is human Dll4 (human, UniProt Q9NR61 27-524, limits assumed). Briefly: cell-based or functional assay.
Assay [2] concerns SKOV-3 cells. Briefly: SKOV-3 ovarian xenograft (subcutaneous) tumor growth inhibition. Format: in vivo, human. Conditions: Humanized Dll4 SCID mice; REGN421 2.5 mg/kg once weekly; 2.5 mg/kg. As to the method: Ovarian tumor xenograft cells were implanted into humanized Dll4 SCID mice or vendor SCID mice (i.e., SCID mice expressing native murine Dll4). After implantation, mice were treated with REGN421 (anti-human Dll4 antibody, binds to human Dll4), mDll4Ab1 (anti-murine Dll4 antibody, binds to murine Dll4), or a human Fc domain control protein. In one study, mice were treated with VEGF-Trap, mDll4Ab1 or VEGF-Trap plus mDll4Ab1. TOV-112D cells (5×10^6) were implanted subcutaneously into the right flank of humanized Dll4 (n=4) or vendor SCID mice (n=7). Treatment with REGN421 (2.5 mg/kg, 1×/week) or mDll4Ab1 (5 mg/kg, 1×/week) vs. hFc control was initiated one week after tumor cell implantation. Animals were treated for 2 to 3 weeks. A2780 cells (2×10^6) were implanted intraperitoneally into humanized Dll4 or vendor SCID mice (n=4-5). Treatment with REGN421 (2.5 mg/kg, 1×/week) or mDll4Ab1 (5 mg/kg, 1×/week) vs. hFc control was initiated one week after tumor cell implantation. For the A2780 combination study, simultaneous treatment with mDll4Ab1 (5 mg/kg, 1×/week) and VEGF-Trap (10 mg/kg, 2×/week) was initiated one week after tumor cell implantation. A VEGF-Trap single treatment arm was included in this study. Animals bearing A2780 tumors were treated for 4-5 weeks. […] Tumor growth inhibition (TGI) was measured as detailed above.

In assay [3] the test system is A2780 cells. Briefly: A2780 ovarian xenograft (intraperitoneal) tumor growth inhibition. Format: in vivo, human. Conditions: for % TGI: REGN421 2.5 mg/kg 1x/week. As to the method:
Ovarian tumor xenograft cells were implanted into humanized Dll4 SCID mice or vendor SCID mice (i.e., SCID mice expressing native murine Dll4). After implantation, mice were treated with REGN421 (anti-human Dll4 antibody, binds to human Dll4), mDll4Ab1 (anti-murine Dll4 antibody, binds to murine Dll4), or a human Fc domain control protein. In one study, mice were treated with VEGF-Trap, mDll4Ab1 or VEGF-Trap plus mDll4Ab1. TOV-112D cells (5×10^6) were implanted subcutaneously into the right flank of humanized Dll4 (n=4) or vendor SCID mice (n=7). Treatment with REGN421 (2.5 mg/kg, 1×/week) or mDll4Ab1 (5 mg/kg, 1×/week) vs. hFc control was initiated one week after tumor cell implantation. Animals were treated for 2 to 3 weeks. A2780 cells (2×10^6) were implanted intraperitoneally into humanized Dll4 or vendor SCID mice (n=4-5). Treatment with REGN421 (2.5 mg/kg, 1×/week) or mDll4Ab1 (5 mg/kg, 1×/week) vs. hFc control was initiated one week after tumor cell implantation. For the A2780 combination study, simultaneous treatment with mDll4Ab1 (5 mg/kg, 1×/week) and VEGF-Trap (10 mg/kg, 2×/week) was initiated one week after tumor cell implantation. A VEGF-Trap single treatment arm was included in this study. Animals bearing A2780 tumors were treated for 4-5 weeks. SKOV-3 cells (5×10^6) in matrigel were implanted subcutaneously and tumor-bearing animals (n=10) were dosed with REGN421 (2.5 mg/kg) and mDll4Ab1 (5 mg/kg) once weekly. OVCAR-3 cells (1×10^7) were implanted subcutaneously into the right flank of vendor SCID mice (n=7). Treatment with mDll4Ab1 (5 mg/kg 1×/week) vs. hFc control was initiated 66 days after tumor cell implantation. Animals were treated for a total of 5 weeks. Tumor growth inhibition (TGI) was measured as detailed above.
Background: In xenograft studies the graft and the host belong to different species.

The test system of assay [4] is Hey-1 transcript (Dll4-notch signaling pathway). As to the kind of experiment: Hey-1 transcript in Phase I patient samples (microarray). The format is in vivo, human. Conditions: all samples, 0.25 and 0.5 mg/kg. How it is done: The pharmacodynamic effect of REGN421 on the Dll4-notch signaling pathway has been analyzed using microarray technology on the patient serum samples collected prior to as well as 24 hours following REGN421 administration.

The subject of assay [5] is human VM-Cub1 tumor cells (bladder carcinoma cells). Briefly: Growth of human VM-Cub1 tumors implanted in humanized Dll4 SCID mice. The format is in vivo. Conditions: for TGI(%): day 32; for TGD: to 600 mm3. How it is done:
The humanized Dll4 SCID mouse was made by replacing the entire extracellular domain of the mouse Dll4 gene with the corresponding extracellular region of the human Dll4 gene (7 kb) in embryonic stem (ES) cells. Homozygous hDll4 mice were generated and bred into SCID background.
A total of 45 mice were divided into nine groups (n=5 per cohort). The first group was treated subcutaneously (sc) with hFc at 2 mg/kg; the second and third groups were treated sc with REGN421 at 0.5 and 2 mg/kg, respectively; the fourth and fifth groups were treated intraperitoneally (ip) with cisplatin at 0.5 and 2 mg/kg, respectively; the sixth group was treated sc with REGN421 at 0.5 mg/kg and ip with cisplatin at 0.5 mg/kg; the seventh group was treated sc with REGN421 at 0.5 mg/kg and ip with cisplatin at 2 mg/kg; the eighth group was treated sc with REGN421 at 2 mg/kg and ip with cisplatin at 0.5 mg/kg; and the ninth group was treated sc with REGN421 at 2 mg/kg and ip with cisplatin at 2 mg/kg. REGN421 was administered every 3-4 days starting on day 14 and mice received three doses total. Cisplatin was administered every 24 hours starting on day 14; mice received four doses total.
To assess the effects of REGN421 and cisplatin as single agents or in combination treatments, the changes in tumor size were recorded. Tumor growth was measured three days before the initial REGN421 treatment, on the day of each REGN421 treatment (days 14, 17 and 21) and thereafter every 3-4 days until tumors reached ˜600 mm3 in size. In vivo tumor size was calculated using the formula (length×width2)/2 (FIG. 1 and Table 1).
Tumor Growth Inhibition, TGI, was determined by calculating the difference in tumor size for treated (T) versus vehicle control (C) tumor at the day the control cohort was euthanized (i.e., at day 32); TGI=[1−(Tfinal−Tinitial)/(Cfinal−Cinitial)]×100.
Tumor growth delay, TGD, was assessed as the difference in days between treated (T) versus control (C) tumors when each cohort reached a specified tumor size. The predetermined tumor size for this experiment was 600 mm^3.

Chain of human Dll4 (Q9NR61 27-524 limits assumed): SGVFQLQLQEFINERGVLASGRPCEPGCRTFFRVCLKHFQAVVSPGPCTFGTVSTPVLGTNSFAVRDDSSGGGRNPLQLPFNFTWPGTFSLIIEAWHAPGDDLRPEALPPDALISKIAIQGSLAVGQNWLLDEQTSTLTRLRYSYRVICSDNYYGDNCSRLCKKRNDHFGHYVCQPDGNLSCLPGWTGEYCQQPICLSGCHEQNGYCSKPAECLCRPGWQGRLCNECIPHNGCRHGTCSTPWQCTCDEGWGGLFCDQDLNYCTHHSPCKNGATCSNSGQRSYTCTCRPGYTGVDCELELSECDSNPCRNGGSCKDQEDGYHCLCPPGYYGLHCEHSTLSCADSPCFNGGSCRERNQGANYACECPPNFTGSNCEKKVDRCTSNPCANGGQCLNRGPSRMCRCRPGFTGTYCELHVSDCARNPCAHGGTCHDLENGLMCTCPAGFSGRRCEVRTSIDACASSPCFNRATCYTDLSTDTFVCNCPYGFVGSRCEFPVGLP

B1: REGN421 (antibody, V domains shown)
VH: QVQLVESGGGVVQPGRSLRLSCAASGFTFSSYGMHWVRQAPGKGLEWVSFLWYDGTNKNYVESVKGRFTISRDNSKNMLYLEMNSLRAEDTAVYYCARDHDFRSGYEGWFDPWGQGTLVTVSS
VL: EIVLTQSPATLSLSPGERATLSCRASQSVSSYLAWYQQKPGQAPRLLIYDASNRATGIPARFSGSGSGTDFTLTISSLEPEDFAVYYCQHRSNWPPTFGGGTKVEIK
B1: in assay [1], the “Hey-1 transcript Post-treatment vs. Pre-treatment ratio (patient 1, 0.25 mg/kg)” value was 0.52 ratio; the “Hey-1 transcript Post-treatment vs. Pre-treatment ratio (patient 2, 0.25 mg/kg)” value came out at 0.85 ratio; the “Hey-1 transcript Post-treatment vs. Pre-treatment ratio (patient 3, 0.25 mg/kg)” value turned out to be 0.77 ratio; the “Hey-1 transcript Post-treatment vs. Pre-treatment ratio (patient 4, 0.25 mg/kg)” value is 0.51 ratio. Further, in assay [1], the “Hey-1 transcript Post-treatment vs. Pre-treatment ratio (patient 5, 0.25 mg/kg)” value is 0.61 ratio; the “Hey-1 transcript Post-treatment vs. Pre-treatment ratio (patient 6, 0.25 mg/kg)” value is 0.55 ratio; the “Hey-1 transcript Post-treatment vs. Pre-treatment ratio (patient 7, 0.25 mg/kg)” value was 0.75 ratio; the “Hey-1 transcript Post-treatment vs. Pre-treatment ratio (patient 8, 0.5 mg/kg)” value is 0.68 ratio. In assay [1], the “Hey-1 transcript Post-treatment vs. Pre-treatment ratio (patient 9, 0.5 mg/kg)” value came out at 0.82 ratio. The “% TGI” value in assay [2] is recorded as 61%. Also, in assay [3] (Humanized Dll4 SCID mice, 2.5 mg/kg), the “% TGI” value was 83%. The “% TGI” value in assay [3] (SCID mice (native murine Dll4), mDll4Ab1 5 mg/kg 1x/week, VEGF-Trap 10 mg/kg 2x/week) was −37%. Besides, the “anti-tumor activity (in words)” value in assay [3] (vendor SCID mice) is recorded as “did not exhibit any appreciable anti-tumor activity”. For the same molecule, the “expression of the Hey-1 gene compared to pre-treatment samples” value in assay [4] is “reduced”. Also, in assay [5] (REGN421 0.5 mg/kg/dose sc x3), the “Euthanized” value turned out to be 32 days, the “TGI(%)” value is −13.7% and the “TGD” value was determined as 0 days. Besides, in assay [5] (REGN421 2 mg/kg/dose sc x3), the “Euthanized” value came out at 44 days, the “TGI(%)” value was found to be 83.1% and the “TGD” value is reported as 12 days. Also, the “reduction in tumor growth” value in assay [5] (REGN421 alone, dose not stated) is listed as 54%.
